The test system of assay [1] is KG1 cells. Description: expression of differentiation antigens CD11b and CD14 after exposure to deltanoids. Type of assay: cell-based. To be noted: FIG. 4b. The text has this:
According to the invention, cells from the KG1 acute myeloid leukemia line were used as a model for cells resistant to differentiation mediated by deltanoids. […] Effect on clonal proliferation and differentiation of human myeloid cells. J Clin Invest, 1986. 78: p. […] J Steroid Biochem Mol Biol, 2012. 132(3-5): p. 220-6]. The HL60 acute myeloid leukemia cell line, used in laboratories engaged in studying deltanoid-mediated differentiation, served as a sensitive line model [Marcinkowska, E. et al., Cell differentiating and anti-proliferative activity of side-chain modified analogs of 1,25-dihydroxyvitamin D3. J Steroid Biochem Mol Biol, 1998. 67(1): p. 71-8; Gallagher, R. et al., Characterization of the continuous, differentiating myeloid cell line (HL-60) from a patient with acute promyelocytic leukemia. Blood, 1979. 54: p. 713-733; Brackman, D. et al., Expression of cell surface antigens during the differentiation of HL-60 cells induced by 1,25-dihydroxyvitamin D3, retinoic acid and DMSO. Leuk Res, 1995. 19: p. 57-64].
Studying susceptibility to differentiation mediated by deltanoids is done in a number of ways. One of these is observing the appearance of antigens typical for macrophages on the surface of deltanoid (calcitriol or analogs) treated cells, serving important functions for the macrophages. […]

Assay [2] deals with KG1-CtrA cells. The description is as above. The assay is classed as cell-based. To be noted: unpublished data.
Assay [3] relates to HL60 cells. To be noted: exposure even to low concentrations; cited from earlier work.
Assay [4] has as its system KG1 cells. To be noted: exposure even to high concentrations; cited from earlier work.
Assay [5] has as its system HL60 cells. Put plainly: flow cytometry, direct labeling with FITC-labeled scFv. The assay is classed as binding. As for the experimental part:
(§1) FITC-labeled 6B and 8F antibodies were used to label the HL60, KG1 and KG1-CtrA cells. To this end, 5×10^5 cells of each were suspended in 50 μl of PBS buffer without calcium and magnesium ions with 0.1% BSA. Either 1 μg of the 8F/FITC protein or 1 μg of the 6B/FITC protein were added to each suspension. Samples were incubated for 45 minutes in darkness on ice, then washed with PBS without calcium and magnesium ions, supplemented with 0.1% BSA and subsequently fluorescence of the samples was read by flow cytometry.
A general note: In flow cytometry, cells or beads pass a laser one at a time.

In assay [6] the test system is KG1 cells. The assay is described as above. Type of assay: binding. As for the experimental part:
as §1

Assay [7] relates to HL60 cells. Put plainly: flow cytometry, sandwich labeling with scFv and FITC-conjugated secondary antibody. Type of assay: binding. Particulars: HL60 + 6B + anti-c-myc-FITC, sandwich method. As for the experimental part: (§2) As a confirmation of the ELISA assays, the flow cytometry analysis was conducted, wherein the cells were labeled with a FITC-conjugated antibody in an scFv format (direct labeling) or with an antibody in an scFv format and then with a FITC-conjugated secondary antibody recognizing the former (sandwich method).
(§3) Optimal dilution of the secondary antibody in the sandwich method is 1:100 or 1:50 (10^5 cells).

In assay [8] the test system is KG1 cells. The assay is described as above. To be noted: KG1 + 6B + anti-c-myc-FITC, sandwich method. The assay is classed as binding. Here is the method: as §2, §3
The test system of assay [9] is KG1 cells. Description: library screening with the ELISA method on whole cells. The assay is classed as binding. Particulars: FIG. 1, background subtracted. An excerpt: The OD450-OD650 signal informs of the binding strength of the tested antibody to KG1 cells (more particularly: of the amount of the antibody bound to the antigen, being then recognized by a secondary HRP-conjugated antibody). Background signal, namely OD450-OD650 for the control with only the secondary antibody, was then subtracted from all measurements. The numbers and letters indicate the position on a 96-well plate.
(§4) Screening the library in order to find antibodies in an scFv format, specifically interacting with the KG1 line, was done based on ELISA according to the Tomlinson protocol (phages with envelope protein fused with scFv after expression on a 96-well plate served as the primary antibody for ELISA). Again, the cells were not immobilized on a Nunc U plate but only centrifuged in mild conditions. The identified positive clones were expressed in the form of solubilized scFv (without fusion with a phage envelope protein) and purified on a protein A resin, and then tested on KG1 cells and HL60 cells obtaining desired results (specificity against KG1 line) (FIG. 1).
Background: An ELISA detects its analyte on a solid surface through an enzyme-linked reagent.

For assay [10], the system named is HL60 cells. Put plainly: ELISA on whole cells. Type of assay: binding.
From the text: as §4
At the same time, it was observed that the HL60 cells spontaneously convert the substrate for HRP conjugated with the secondary antibody, giving results that need to be analyzed with caution. To this end, the reaction for HL60 was stopped sooner but the results required additional confirmation with a different method anyway.

In assay [11] the test system is KG1-CtrA cells. Put plainly: flow cytometry, direct labeling with FITC-labeled scFv. The assay is classed as binding. Particulars: 1 μg 6B/FITC, 5×10^5 KG1-CtrA cells, FIG. 5. As for the experimental part: as §1

These results are taken from patent publication US10197572B2, “Method and kit for detection of deltanoid-resistant leukemia cells and antibody for use therein” (WROCLAWSKIE CENTRUM BADAN EIT+ SP. Z O.O., priority 2014, dated 2019).

As to `C=C1/C(=C\C=C2/CCC[C@]3(C)[C@@H]([C@H](C)CCCC(C)(C)O)CC[C@@H]23)C[C@@H](O)C[C@@H]1O` [calcitriol], the differentiation after exposure result in the assay with KG1 cells [1] is recorded as “lack of differentiation”. Moreover, in the assay on KG1-CtrA cells [2], the “expression of differentiation antigens CD11 b and CD14” value is “significantly increase expression”. In the assay on HL60 cells [3], the “expression of CD14 and CD11b antigens” value was “significantly increase expression”. In the assay on KG1 cells [4], the “CD11 b and CD14 expression” value is recorded as “do not alter”.

B1: 8F: scFv of SEQ ID NO: 2, negative control, same framework as 6B, differing only in hypervariable fragments (protein)
scFv: EVQLLESGGGLVQPGGSLRLSCAASGFTFSSYGMSWVRQAPGKGLEWVSWIDASGTRTQYADSVKGRFTISRDNSKNTLYLQMNSLRAEDTAVYYCAKLFRSFDYWGQGTLVTVSSGGGGSGGGGSGGGGSTDIQMTQSPSSLSASVGDRVTITCRASQSISSYLNWYQQKPGKAPKLLIYRASSLQSGVPSRFSGSGSGTDFTLTISSLQPEDFATYYCQQGQTLPITFGQGTKVEIKRAAA
modifications: antibody 8F
For the molecule B1, the “recognition of deltanoid-sensitive leukemia cells” value in the assay with HL60 cells [5] is reported as “not recognizing”. In addition, the “recognition of deltanoid-resistant leukemia cells” value with KG1 cells [6] is reported as “not recognizing”.

B2: 6B: scFv of SEQ ID NO: 1, which specifically recognizes KG1 cells line, obtained by phage display (protein)
scFv: EVQLLESGGGLVQPGGSLRLSCAASGFTFSSYGMSWVRQAPGKGLEWVSTIRTAGRATEYADSVKGRFTISRDNSKNTLYLQMNSLRAEDTAVYYCAKSPQTFDYWGQGTLVTVSSGGGGSGGGGSGGGGSTDIQMTQSPSSLSASVGDRVTITCRASQSISSYLNWYQQKPGKAPKLLIYRASRLQSGVPSRFSGSGSGTDFTLTISSLQPEDFATYYCQQRLTIPITFGQGTKVEIKRAAA
modifications: antibody 6B
Take B2: in the assay on HL60 cells [7], the “FITC+: GeoMean” value came to 9.8, the “FITC+: mean” value amounted to 10.7 and the “FITC+: median” value was determined as 8.9. For the same molecule, in the assay on KG1 cells [8], the “FITC+: % Vis” value is 100.0%, the “FITC+: GeoMean” value stood at 28.1, the “FITC+: mean” value turned out to be 29.4 and the “FITC+: median” value is reported as 28.4. For the same molecule, the “OD450-OD650 signal (binding strength to KG1 cells)” value in the assay with KG1 cells [9] is listed as “clearly prominent”. Moreover, the “ELISA signal in comparison to control with non-specific scFv” value in the assay on HL60 cells [10] was “no increased signal”. For the same molecule, the “presence of the 6B-binding antigen” value with KG1-CtrA cells [11] was “lost”.
